The target of one experiment is human FcRn (human, UniProt P55899 24-290; P61769 21-119). Put plainly: SPR 25C pH 6.0, steady state. As for the experimental part:
Biacore T200 (GE Healthcare) was used to assess the binding activity to human FcRn. Measurement was performed at 25° C. using 50 mM phosphate, 150 mM NaCl, 0.05 w/v %-P20, pH 6.0 as buffer. Human FcRn proteins used for this determination were prepared by the procedure described in WO2010107110. About 400 RU of antibody was captured using a sensor chip immobilized with CaptureSelect™ Human Fab-lambda Kinetics Biotin Conjugate (Thermo Fisher Scientific) as a molecule for ligand capturing, followed by the binding of human FcRn diluted in measuring buffer. The activity of the respective antibodies to bind FcRn was assessed by calculating KD(mol/L) by the steady-state model using Biacore T200 Evaluation Software 2.0.

Experiment [1] concerns the target T1, human FcgRIa extracellular domain (human, UniProt P12314 16-292).
T1 construct: extracellular domain; also called hFcgRIa
The experiment in a line: SPR 25C. As for the experimental part: (§1) Biacore T200 (GE Healthcare) was used to evaluate the binding activity to the respective human Fcγ receptor (hereafter referred to as FcγR). Measurement was performed at 25° C. using 50 mM phosphate, 150 mM NaCl, 0.05 w/v %-P20, pH 7.4 as buffer. About 1000 RU of antibody was captured using a sensor chip immobilized with CaptureSelect™ Human Fab-lambda Kinetics Biotin Conjugate (Thermo Fisher Scientific) as a molecule for ligand capturing. Human FcγR was diluted to 8 nM for FcγRIa and 1000 nM for other FcγR in the measurement buffer, and it was interacted to the captured antibody. The binding activity of each antibody to FcγR was assessed by calculating the binding amount of FcγR (RU) per unit amount of antibody using Biacore T200 Evaluation Software 2.0.

Experiment [2] deals with T2, human FcgRIIb extracellular domain (human, UniProt P31994 43-217).
T2 construct: extracellular domain; also called hFcgRIIb
T2 sequence (looked up): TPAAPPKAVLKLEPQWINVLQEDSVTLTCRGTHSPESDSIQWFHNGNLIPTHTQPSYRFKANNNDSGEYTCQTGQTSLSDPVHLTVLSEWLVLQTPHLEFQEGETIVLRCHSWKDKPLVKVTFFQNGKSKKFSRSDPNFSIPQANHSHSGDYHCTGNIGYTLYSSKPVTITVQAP
Put plainly: SPR 25C. As for the experimental part: as §1

Experiment [3] deals with T3, human FcgRIIa type R extracellular domain (human, UniProt P12318 34-217).
T3 construct: extracellular domain; also called hFcgRIIaR
T3 sequence (looked up): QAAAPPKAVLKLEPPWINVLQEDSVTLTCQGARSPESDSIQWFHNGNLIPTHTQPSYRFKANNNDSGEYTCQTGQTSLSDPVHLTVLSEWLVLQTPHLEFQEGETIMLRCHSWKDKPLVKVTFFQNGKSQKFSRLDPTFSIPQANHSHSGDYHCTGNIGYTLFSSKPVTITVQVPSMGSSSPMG
Put plainly: SPR 25C. As for the experimental part: as §1

Experiment [4] deals with T4, human FcgRIIIa V158 extracellular domain (human, UniProt P08637 17-208).
T4 construct: extracellular domain; also called hFcgRIIIaV
Put plainly: SPR 25C. As for the experimental part:
as §1

For experiment [5], the target named is T5, human FcgRIIa type H extracellular domain (human, UniProt P12318 34-217).
T5 construct: extracellular domain; also called hFcgRIIaH
T5 sequence (looked up): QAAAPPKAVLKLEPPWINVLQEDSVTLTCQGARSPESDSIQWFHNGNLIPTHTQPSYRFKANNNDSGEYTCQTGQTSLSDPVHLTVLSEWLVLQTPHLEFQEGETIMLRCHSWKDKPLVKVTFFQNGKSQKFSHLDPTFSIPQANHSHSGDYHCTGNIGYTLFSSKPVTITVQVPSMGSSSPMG
The experiment in a line: SPR 25C. As for the experimental part: as §1

For experiment [6], the target named is T6, human FcgRIIIa F158 extracellular domain (human, UniProt P08637 17-208).
T6 construct: extracellular domain; also called hFcgRIIIaF
The experiment in a line: SPR 25C. As for the experimental part:
as §1

T6 sequence (P08637 17-208): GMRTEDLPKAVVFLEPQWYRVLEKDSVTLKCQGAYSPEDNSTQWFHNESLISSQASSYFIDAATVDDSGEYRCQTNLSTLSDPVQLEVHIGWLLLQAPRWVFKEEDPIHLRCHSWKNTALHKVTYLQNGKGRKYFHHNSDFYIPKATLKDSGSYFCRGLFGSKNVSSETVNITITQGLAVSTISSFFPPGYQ
Sequence of human FcRn (P55899 24-290 limits assumed, chain 1 of 2): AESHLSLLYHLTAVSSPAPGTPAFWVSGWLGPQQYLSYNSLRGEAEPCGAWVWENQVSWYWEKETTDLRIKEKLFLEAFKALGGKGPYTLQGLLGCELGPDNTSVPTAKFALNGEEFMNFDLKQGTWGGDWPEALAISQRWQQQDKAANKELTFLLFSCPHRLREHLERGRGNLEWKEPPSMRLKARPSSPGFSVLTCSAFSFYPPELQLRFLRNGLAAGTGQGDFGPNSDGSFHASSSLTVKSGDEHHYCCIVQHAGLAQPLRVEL
Sequence of human FcRn (P61769 21-119 limits assumed, chain 2 of 2): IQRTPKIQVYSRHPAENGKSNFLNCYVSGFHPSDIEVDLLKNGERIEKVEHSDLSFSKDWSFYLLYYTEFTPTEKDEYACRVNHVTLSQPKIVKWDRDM
T1 sequence (P12314 16-292): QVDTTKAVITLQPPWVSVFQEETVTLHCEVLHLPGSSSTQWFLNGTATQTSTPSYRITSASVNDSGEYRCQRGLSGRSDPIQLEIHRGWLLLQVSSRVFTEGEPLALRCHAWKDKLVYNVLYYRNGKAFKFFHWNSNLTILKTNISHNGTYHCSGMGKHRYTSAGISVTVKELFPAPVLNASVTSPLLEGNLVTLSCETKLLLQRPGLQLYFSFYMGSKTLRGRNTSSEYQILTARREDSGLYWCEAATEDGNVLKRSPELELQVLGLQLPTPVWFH
T4 sequence (P08637 17-208 F176V): as the sequence (P08637 17-208) above, with F160V counted along it

B1: A375-G1T3/B167-Lamlib (antibody, human IgG1, lambda)
heavy: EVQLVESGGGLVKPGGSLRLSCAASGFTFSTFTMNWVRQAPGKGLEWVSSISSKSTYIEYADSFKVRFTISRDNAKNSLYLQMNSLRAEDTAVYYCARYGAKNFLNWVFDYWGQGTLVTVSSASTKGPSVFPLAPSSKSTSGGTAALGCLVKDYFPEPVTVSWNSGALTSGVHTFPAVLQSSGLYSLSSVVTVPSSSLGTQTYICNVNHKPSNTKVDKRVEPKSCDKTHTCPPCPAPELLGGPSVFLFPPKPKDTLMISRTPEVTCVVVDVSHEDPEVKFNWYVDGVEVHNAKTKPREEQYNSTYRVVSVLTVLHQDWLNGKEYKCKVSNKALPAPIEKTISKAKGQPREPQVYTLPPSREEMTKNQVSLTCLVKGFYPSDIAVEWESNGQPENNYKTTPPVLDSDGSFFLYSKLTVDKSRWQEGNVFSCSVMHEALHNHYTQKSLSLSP
light: QSALTQPPSASGSPGQTVTISCTGTRYDVGYYEYVSWYQQHPGKAPKLMIYETSKRLSGVPDRFSGSKSGNTASLTVSGLQAEDEADYYCSSYRYEHQVSFGGGTKLTVLGQPKAAPSVTLFPPSSEELQANKATLVCLISDFYPGAVTVAWKADSSPVKAGVETTTPSKQSNNKYAASSYLSLTPEQWKSHRSYSCQVTHEGSTVEKTVAPTECS
notes: copies: 2 + 2
By Kd is commonly meant the free concentration of one partner at which half of the binding sites on the other are occupied at equilibrium, for simple one-to-one binding. Take B1: the Kd with human FcRn stood at 1270 nM. Besides, the “binding per 1RU antibody” value in experiment [1] amounted to 0.0813 RU; in experiment [2], 0.011 RU; in experiment [3], 0.0463 RU; in experiment [4], 0.07 RU; in experiment [5], 0.0567 RU; in experiment [6], 0.0213 RU. Also, the “relative binding (A375-G1T3/B167-Lamlib=1)” value (shortened to “relative binding”) in experiment [1], in experiment [2], in experiment [3], in experiment [4], in experiment [5] and in experiment [6] was 1 in each case.

B2: A375-MY201a/B167-Lamlib (antibody, human IgG1, lambda)
heavy: EVQLVESGGGLVKPGGSLRLSCAASGFTFSTFTMNWVRQAPGKGLEWVSSISSKSTYIEYADSFKVRFTISRDNAKNSLYLQMNSLRAEDTAVYYCARYGAKNFLNWVFDYWGQGTLVTVSSASTKGPSVFPLAPSSKSTSGGTAALGCLVKDYFPEPVTVSWNSGALTSGVHTFPAVLQSSGLYSLSSVVTVPSSSLGTQTYICNVNHKPSNTKVDKRVEPKSCDKTHTCPPCPAPELLNGPSVFLFPPKPKDTLMISRTPEVTCVVVDVSDEDPEVKFNWYVDGVEVHNAKTKPREEQYNSTYRVVSVLTVLHQDWLNGKEYKCKVSNKALPKPIEKTISKAKGQPREPQVYTLPPSREEMTKNQVSLTCLVKGFYPSDIAVEWESNGQPENNYKTTPPVLDSDGSFFLYSKLTVDKSRWQQGNVFSCSVMHEALHNHYTQKSLSLSP
light: QSALTQPPSASGSPGQTVTISCTGTRYDVGYYEYVSWYQQHPGKAPKLMIYETSKRLSGVPDRFSGSKSGNTASLTVSGLQAEDEADYYCSSYRYEHQVSFGGGTKLTVLGQPKAAPSVTLFPPSSEELQANKATLVCLISDFYPGAVTVAWKADSSPVKAGVETTTPSKQSNNKYAASSYLSLTPEQWKSHRSYSCQVTHEGSTVEKTVAPTECS
notes: copies: 2 + 2
B2 had a Kd in the experiment with human FcRn of 1190 nM. Moreover, the “binding per 1RU antibody” value worked out at 0.0396 RU in experiment [1]; 0.0401 RU in experiment [2]; 0.0338 RU in experiment [3]; 0.0024 RU in experiment [4]; 0.0534 RU in experiment [5]; 0.0007 RU in experiment [6]. For the same molecule, the “relative binding” value in experiment [1] was found to be 0.49; in experiment [2], 3.66; in experiment [3] it was 0.73; in experiment [4], 0.03; in experiment [5], 0.94; in experiment [6], 0.04.

B3: A375-TT11/B167-Lamlib (antibody, human IgG1, lambda)
heavy: EVQLVESGGGLVKPGGSLRLSCAASGFTFSTFTMNWVRQAPGKGLEWVSSISSKSTYIEYADSFKVRFTISRDNAKNSLYLQMNSLRAEDTAVYYCARYGAKNFLNWVFDYWGQGTLVTVSSASTKGPSVFPLAPSSKSTSGGTAALGCLVKDYFPEPVTVSWNSGALTSGVHTFPAVLQSSGLYSLSSVVTVPSSSLGTQTYICNVNHKPSNTKVDKKVEPKSCDKTHTCPPCPAPEYLGGDSVFLFPPKPKDVLMISRTPEVTCVVVDVSHEDPEVKFNWYVDGVEVHNAKTKPREEQYNSTYRVVSVLPVLHQDWLNGKEYKCKVSNKALPKPIEKTISKAKGQPREPQVYTLPPSREEMTKNQVSLTCLVKGFYPSDIAVEWESNGQPENNYKTTPPVLDSDGSFFLYSKLTVDKSRWQQGNVFSCSVMHEALHNHYTQKSLSLSP
light: QSALTQPPSASGSPGQTVTISCTGTRYDVGYYEYVSWYQQHPGKAPKLMIYETSKRLSGVPDRFSGSKSGNTASLTVSGLQAEDEADYYCSSYRYEHQVSFGGGTKLTVLGQPKAAPSVTLFPPSSEELQANKATLVCLISDFYPGAVTVAWKADSSPVKAGVETTTPSKQSNNKYAASSYLSLTPEQWKSHRSYSCQVTHEGSTVEKTVAPTECS
notes: copies: 2 + 2
Regarding B3, the dissociation constant (Kd) with human FcRn was found to be 1560 nM. Besides, the “binding per 1RU antibody” value in experiment [2] was 0.0477 RU; in experiment [4] it was -0.001 RU; in experiment [5], 0.002 RU; in experiment [6], -0.0009 RU. Also, the “relative binding” value in experiment [2] is 4.35; in experiment [4] it was -0.01; in experiment [5], 0.03; in experiment [6] it was -0.04.

B4: A375-MY201aPh/B167-Lamlib (antibody, human IgG1, lambda)
heavy: EVQLVESGGGLVKPGGSLRLSCAASGFTFSTFTMNWVRQAPGKGLEWVSSISSKSTYIEYADSFKVRFTISRDNAKNSLYLQMNSLRAEDTAVYYCARYGAKNFLNWVFDYWGQGTLVTVSSASTKGPSVFPLAPSSKSTSGGTAALGCLVKDYFPEPVTVSWNSGALTSGVHTFPAVLQSSGLYSLSSVVTVPSSSLGTQTYICNVNHKPSNTKVDKRVEPKSCDKTHTCPPCPAPELWNGPSVFLFPPKPKDTLMISRTPEVTCVVVDVSDEDPEVKFNWYVDGVEVHNAKTKPREEQYNSTYRVVSVLTVLHQDWLNGKEYKCKVSNKALPKPIEKTISKAKGQPREPQVYTLPPSREEMTKNQVSLTCLVKGFYPSDIAVEWESNGQPENNYKTTPPVLDSDGSFFLYSKLTVDKSRWQQGNVFSCSVMHEALHNHYTQKSLSLSP
light: QSALTQPPSASGSPGQTVTISCTGTRYDVGYYEYVSWYQQHPGKAPKLMIYETSKRLSGVPDRFSGSKSGNTASLTVSGLQAEDEADYYCSSYRYEHQVSFGGGTKLTVLGQPKAAPSVTLFPPSSEELQANKATLVCLISDFYPGAVTVAWKADSSPVKAGVETTTPSKQSNNKYAASSYLSLTPEQWKSHRSYSCQVTHEGSTVEKTVAPTECS
notes: copies: 2 + 2
Turning to B4, binding with human FcRn was put at a Kd of 1180 nM. For the same molecule, the “binding per 1RU antibody” value in experiment [1] amounted to 0.004 RU; in experiment [2], 0.0313 RU; in experiment [3] it was 0.0335 RU; in experiment [4], 0.0011 RU; in experiment [5] it was 0.0328 RU; in experiment [6], 0.0007 RU. Moreover, the “relative binding” value in experiment [1] came to 0.05; in experiment [2], 2.85; in experiment [3] it was 0.72; in experiment [4], 0.02; in experiment [5], 0.58; in experiment [6] it was 0.03.

The record behind these values is US20230272099A1 (Chugai, published 2023).
